{"source": "paper PMC12005725", "key": {"[1]": {"molecular_target": "axonemes (purified from sea urchin sperm flagella) (sea urchin)", "experiment": "single-molecule fluorescence microscopy (TIRF), dwell time; oxidized condition (no 2-mercaptoethanol); axonemes on the slide, 200 or 500 pM GFP-kinesin in solution, 1 mM ATP, 100 mM KCl, BRB12; 10 ms resolution; k2_SMF is the inverse of the mean dwell time"}, "[2]": {"molecular_target": "axonemes (purified from sea urchin sperm flagella) (sea urchin)", "experiment": "single-molecule fluorescence microscopy (TIRF), dwell time; reducing condition (70 mM 2-mercaptoethanol); axonemes on the slide, 200 or 500 pM GFP-kinesin in solution, 1 mM ATP, 100 mM KCl, BRB12; 10 ms resolution; k2_SMF is the inverse of the mean dwell time"}, "[3]": {"molecular_target": "microtubule (polymerized tubulin, taxol-stabilised) (UniProt P02550)", "sequence (P02550 whole entry, looked up)": "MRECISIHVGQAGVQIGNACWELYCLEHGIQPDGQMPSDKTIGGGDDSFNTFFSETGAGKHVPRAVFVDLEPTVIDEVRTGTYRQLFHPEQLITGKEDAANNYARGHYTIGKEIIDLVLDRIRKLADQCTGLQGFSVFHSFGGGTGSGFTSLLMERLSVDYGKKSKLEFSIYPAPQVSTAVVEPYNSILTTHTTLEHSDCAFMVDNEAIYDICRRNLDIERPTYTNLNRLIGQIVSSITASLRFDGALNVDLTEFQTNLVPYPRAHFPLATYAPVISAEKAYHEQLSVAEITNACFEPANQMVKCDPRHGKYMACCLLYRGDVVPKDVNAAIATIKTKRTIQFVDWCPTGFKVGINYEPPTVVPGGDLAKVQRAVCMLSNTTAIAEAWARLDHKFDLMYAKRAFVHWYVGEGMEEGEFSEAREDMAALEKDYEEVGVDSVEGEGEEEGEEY", "experiment": "high-speed total internal reflection dark-field microscopy of gold-labeled kinesin; microtubules held on glass by protein A and anti-alpha-tubulin antibody, 3 nM gold-labeled kinesin, BRB12 with 20 mM KCl and 1-1000 uM ATP, 24-26 C, 20,000 fps; bound and unbound states of the gold-labeled WT head while the E236A head stays bound"}, "[4]": {"molecular_target": "microtubule (polymerized tubulin, taxol-stabilised) (UniProt P02550)"}, "[5]": {"molecular_target": "microtubule (polymerized tubulin, taxol-stabilised) (UniProt P02550)", "remark": "listed apart in the source"}, "[6]": {"molecular_target": "microtubule (polymerized tubulin, taxol-stabilised) (UniProt P02550)", "experiment": "stopped-flow turbidity (light scattering); reduced condition (10 mM DTT); nucleotide-free complex of 3.2 uM kinesin and 4 uM microtubule (20 uM taxol, 0.1 U/ml apyrase), 150 mM KCl added, rapidly mixed with 1 mM ATP plus 150 mM KCl; BRB25 pH 6.8, 25 C; turbidity at 340 nm, burst equation"}, "[7]": {"molecular_target": "microtubule (polymerized tubulin, taxol-stabilised) (UniProt P02550)", "experiment": "stopped-flow turbidity (light scattering); oxidized condition (10 uM CuCl2, 20 uM o-phenanthroline); nucleotide-free complex of 3.2 uM kinesin and 4 uM microtubule (20 uM taxol, 0.1 U/ml apyrase), 150 mM KCl added, rapidly mixed with 1 mM ATP plus 150 mM KCl; BRB25 pH 6.8, 25 C; turbidity at 340 nm, burst equation"}, "[8]": {"molecular_target": "microtubule (polymerized tubulin, taxol-stabilised) (UniProt P02550)", "experiment": "single-molecule fluorescence (smFRET with Alexa-ATP, TIRF) on microtubules; microtubules on a poly-L-lysine-coated slide, 100 pM ATTO488-kinesin, 500 nM Alexa Fluor 647 ATP, 150 mM KCl, 20 uM taxol, BRB12, 22 C, 10 ms exposure"}}, "data": [{"substance": "GFP-fused K339 Cys-light C47/C328 kinesin, oxidized (front head crosslink) (from UniProt P33176 1-339) (domain or fragment)", "values": [{"measurement": "fold increase of the binding frequency to the microtubule after crosslinking", "setting": "[1]", "value": 4, "unit": "fold"}, {"measurement": "k2 SMF (inverse of the mean dwell time on the microtubule, 1 mM ATP)", "setting": "[1]", "value": 2.3, "unit": "s⁻¹"}]}, {"substance": "GFP-fused K339 Cys-light C222/C334 kinesin, reduced (from UniProt P33176 1-339) (domain or fragment)", "values": [{"measurement": "k2 SMF (inverse of the mean dwell time on the microtubule, 1 mM ATP)", "setting": "[2]", "value": 47.2, "unit": "s⁻¹"}]}, {"substance": "E236A–WT heterodimer without neck-linker extension (G0), WT head labeled with a gold nanoparticle (from UniProt P33176 1-490; P33176 1-490) (complex)", "values": [{"measurement": "dwell time of the microtubule-bound state of the front WT head at 10 µM ATP", "setting": "[3]", "value": 1.1, "unit": "s"}, {"measurement": "kcat of the inverse bound dwell time against ATP, taken as the ATP-promoted detachment rate k2 of the front WT head", "setting": "[3]", "value": 6.3, "unit": "s^–1"}, {"measurement": "mean dwell time of the microtubule-bound state of the front WT head at 1 mM ATP", "setting": "[3]", "value": 160, "unit": "ms"}, {"measurement": "mean dwell time of the unbound state of the front WT head at 1 mM ATP", "setting": "[3]", "value": 11, "unit": "ms"}, {"measurement": "Km (MT) of the microtubule-activated ATPase of the heterodimer (G0)", "setting": "[4]", "value": 0.54, "unit": "µM"}]}, {"substance": "Cys-light K339 C4/C330 monomer, reduced (un-crosslinked) (from UniProt P33176 1-339) (domain or fragment)", "values": [{"measurement": "Km(MT) of the steady-state microtubule-activated ATPase, reduced condition", "setting": "[5]", "value": 0.42, "unit": "µM"}, {"measurement": "k2 (ATP-induced dissociation rate from microtubule, light scattering)", "setting": "[6]", "value": 68.6, "unit": "s⁻¹"}]}, {"substance": "Cys-light K339 C47/C335 monomer, oxidized (disulfide-crosslinked; loose backward crosslink) (from UniProt P33176 1-339) (domain or fragment)", "values": [{"measurement": "k2 (ATP-induced dissociation rate from microtubule, light scattering)", "setting": "[7]", "value": 19.4, "unit": "s⁻¹"}, {"measurement": "Km(MT) of the steady-state microtubule-activated ATPase, oxidized condition", "setting": "[5]", "value": 0.1, "unit": "µM"}]}, {"substance": "Cys-light K339 C4/C330 monomer, oxidized (disulfide-crosslinked between cover strand and neck linker) (from UniProt P33176 1-339) (domain or fragment)", "values": [{"measurement": "k2 (ATP-induced dissociation rate from microtubule, light scattering)", "setting": "[7]", "value": 80.8, "unit": "s⁻¹"}, {"measurement": "Km(MT) of the steady-state microtubule-activated ATPase, oxidized condition", "setting": "[5]", "value": 8.36, "unit": "µM"}]}, {"substance": "GFP-fused K339 Cys-light C47/C335 kinesin, oxidized (crosslinked) (from UniProt P33176 1-339) (domain or fragment)", "values": [{"measurement": "k2 SMF (inverse of the mean dwell time on the microtubule, 1 mM ATP)", "setting": "[1]", "value": 22.5, "unit": "s⁻¹"}]}, {"substance": "Cys-light K339 C47/C335 monomer, reduced (un-crosslinked) (from UniProt P33176 1-339) (domain or fragment)", "values": [{"measurement": "Km(MT) of the steady-state microtubule-activated ATPase, reduced condition", "setting": "[5]", "value": 0.33, "unit": "µM"}, {"measurement": "k2 (ATP-induced dissociation rate from microtubule, light scattering)", "setting": "[6]", "value": 41.6, "unit": "s⁻¹"}]}, {"substance": "Cys-light K339 C47/C328 monomer, reduced (un-crosslinked) (from UniProt P33176 1-339) (domain or fragment)", "values": [{"measurement": "Km(MT) of the steady-state microtubule-activated ATPase, reduced condition", "setting": "[5]", "value": 0.28, "unit": "µM"}, {"measurement": "k2 (ATP-induced dissociation rate from microtubule, light scattering)", "setting": "[6]", "value": 51.5, "unit": "s⁻¹"}]}, {"substance": "GFP-fused K339 Cys-light C222/C334 kinesin, oxidized (rear head crosslink) (from UniProt P33176 1-339) (domain or fragment)", "values": [{"measurement": "fold reduction of the binding frequency to the microtubule after crosslinking", "setting": "[1]", "value": 6, "unit": "fold"}, {"measurement": "k2 SMF (inverse of the mean dwell time on the microtubule, 1 mM ATP)", "setting": "[1]", "value": 57.1, "unit": "s⁻¹"}]}, {"substance": "GFP-fused K339 Cys-light C47/C335 kinesin, reduced (from UniProt P33176 1-339) (domain or fragment)", "values": [{"measurement": "k2 SMF (inverse of the mean dwell time on the microtubule, 1 mM ATP)", "setting": "[2]", "value": 52.1, "unit": "s⁻¹"}]}, {"substance": "Cys-light K339 C47/C328 monomer, oxidized (disulfide-crosslinked; front head crosslink) (from UniProt P33176 1-339) (domain or fragment)", "values": [{"measurement": "k2 (ATP-induced dissociation rate from microtubule, light scattering)", "setting": "[7]", "value": 7, "unit": "s⁻¹"}, {"measurement": "Km(MT) of the steady-state microtubule-activated ATPase, oxidized condition", "setting": "[5]", "value": 0.13, "unit": "µM"}]}, {"substance": "GFP-fused K339 Cys-light C47/C328 kinesin, reduced (from UniProt P33176 1-339) (domain or fragment)", "values": [{"measurement": "k2 SMF (inverse of the mean dwell time on the microtubule, 1 mM ATP)", "setting": "[2]", "value": 42.1, "unit": "s⁻¹"}]}, {"substance": "GFP-fused K339 Cys-light C4/C330 kinesin, reduced (from UniProt P33176 1-339) (domain or fragment)", "values": [{"measurement": "k2 SMF (inverse of the mean dwell time on the microtubule, 1 mM ATP)", "setting": "[2]", "value": 59.5, "unit": "s⁻¹"}]}, {"substance": "GFP-fused K339 Cys-light kinesin (WT, no cysteine introduction) (from UniProt P33176 1-339) (domain or fragment)", "values": [{"measurement": "k2 SMF (inverse of the mean dwell time on the microtubule, 1 mM ATP)", "setting": "[1]", "value": 41.6, "unit": "s⁻¹"}, {"measurement": "k2 SMF (inverse of the mean dwell time on the microtubule, 1 mM ATP)", "setting": "[2]", "value": 44, "unit": "s⁻¹"}]}, {"substance": "GFP-fused K339 Cys-light C4/C330 kinesin, oxidized (crosslinked) (from UniProt P33176 1-339) (domain or fragment)", "values": [{"measurement": "k2 SMF (inverse of the mean dwell time on the microtubule, 1 mM ATP)", "setting": "[1]", "value": 58.4, "unit": "s⁻¹"}]}, {"substance": "E236A–WT heterodimer with a 12 poly-Gly insertion (G12), WT head labeled with a gold nanoparticle (from UniProt P33176 1-490; P33176 1-490) (complex)", "values": [{"measurement": "dwell time of the WT head bound at the front-binding site at 1 mM ATP", "setting": "[3]", "value": 111, "unit": "ms"}, {"measurement": "dwell time of the WT head bound at the rear-tubulin-binding site at 1 mM ATP", "setting": "[3]", "value": 19, "unit": "ms"}, {"measurement": "kcat of the inverse bound dwell time against ATP, taken as the ATP-induced detachment rate k2 of the front WT head", "setting": "[3]", "value": 9.3, "unit": "s^–1"}, {"measurement": "Km (MT) of the microtubule-activated ATPase of the heterodimer (G12)", "setting": "[4]", "value": 0.14, "unit": "µM"}]}, {"substance": "Cys-light K339 C222/C334 monomer, reduced (un-crosslinked) (from UniProt P33176 1-339) (domain or fragment)", "values": [{"measurement": "Km(MT) of the steady-state microtubule-activated ATPase, reduced condition", "setting": "[5]", "value": 0.23, "unit": "µM"}, {"measurement": "k2 (ATP-induced dissociation rate from microtubule, light scattering)", "setting": "[6]", "value": 69.3, "unit": "s⁻¹"}]}, {"substance": "ATTO488-labeled 'wild-type' monomer (Cys-light K349 monomeric kinesin with Cys55) (from UniProt P33176 1-349) (domain or fragment)", "values": [{"measurement": "inverse of the mean dwell time for head dissociation (Alexa-ATP-bound state ending in detachment from the microtubule)", "setting": "[8]", "value": 89.7, "unit": "s^–1"}]}, {"substance": "Cys-light K339 monomeric kinesin with no cysteine introduction (WT) (from UniProt P33176 1-339) (domain or fragment)", "values": [{"measurement": "k2 (ATP-induced dissociation rate from microtubule, light scattering)", "setting": "[7]", "value": 59.1, "unit": "s⁻¹"}, {"measurement": "Km(MT) of the steady-state microtubule-activated ATPase, oxidized condition", "setting": "[5]", "value": 0.36, "unit": "µM"}, {"measurement": "Km(MT) of the steady-state microtubule-activated ATPase, reduced condition", "setting": "[5]", "value": 0.31, "unit": "µM"}, {"measurement": "k2 (ATP-induced dissociation rate from microtubule, light scattering)", "setting": "[6]", "value": 52.1, "unit": "s⁻¹"}]}, {"substance": "E236A–WT heterodimer with a 7 poly-Gly insertion (G7), WT head labeled with a gold nanoparticle (from UniProt P33176 1-490; P33176 1-490) (complex)", "values": [{"measurement": "kcat of the inverse bound dwell time against ATP, taken as the ATP-induced detachment rate k2 of the front WT head", "setting": "[3]", "value": 7.6, "unit": "s^–1"}, {"measurement": "Km (MT) of the microtubule-activated ATPase of the heterodimer (G7)", "setting": "[4]", "value": 0.18, "unit": "µM"}]}, {"substance": "Cys-light K339 C222/C334 monomer, oxidized (disulfide-crosslinked; rear head crosslink) (from UniProt P33176 1-339) (domain or fragment)", "values": [{"measurement": "Km(MT) of the steady-state microtubule-activated ATPase, oxidized condition", "setting": "[5]", "value": 0.2, "unit": "µM"}]}]}
